{"source": "paper PMC5137450", "binders": {"B1": {"name": "(CUG)20 (structured_RNA)", "RNA": "CUGCUGCUGCUGCUGCUGCUGCUGCUGCUGCUGCUGCUGCUGCUGCUGCUGCUGCUGCUG"}, "B2": {"name": "Atp2a1 intron 22 RNA (145 nt) (structured_RNA)", "RNA": "GGGCACCCCUGCGGUCACUUGCGCGCGCUCGCAGCUCUCCCUGGAGCCACUGCUGCUGUUGCCACUGCCCGCUUCCACAUGAGGGCCAUGCCGUUACUGUGGGCACUGGCAGCUGUGAGGCUGUGUCCUGGCCGUCCAGUCUGCU"}}, "assay_in_all_cases": "filter binding", "key": {"MBNL1 [1]": {"molecular_target": "T1, MBNL1 (UniProt Q9NR56 1-260)", "T1 sequence": "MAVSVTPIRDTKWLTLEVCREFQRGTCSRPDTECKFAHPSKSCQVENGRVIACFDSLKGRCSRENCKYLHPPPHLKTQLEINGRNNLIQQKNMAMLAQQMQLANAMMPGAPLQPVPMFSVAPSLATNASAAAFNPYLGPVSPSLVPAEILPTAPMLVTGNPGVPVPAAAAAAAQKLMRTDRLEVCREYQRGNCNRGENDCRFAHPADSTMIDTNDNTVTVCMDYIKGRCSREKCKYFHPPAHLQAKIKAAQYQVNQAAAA"}, "MBNL2 [2]": {"molecular_target": "T2, MBNL2 (human, UniProt Q5VZF2 1-268)", "T2 sequence": "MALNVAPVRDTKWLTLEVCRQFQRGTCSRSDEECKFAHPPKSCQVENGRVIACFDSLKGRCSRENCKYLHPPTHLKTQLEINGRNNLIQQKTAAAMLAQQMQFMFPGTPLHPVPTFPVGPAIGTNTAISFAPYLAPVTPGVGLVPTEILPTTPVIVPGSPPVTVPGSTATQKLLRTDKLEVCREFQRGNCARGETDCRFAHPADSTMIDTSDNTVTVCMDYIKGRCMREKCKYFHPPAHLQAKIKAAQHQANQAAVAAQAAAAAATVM"}, "MBNL3 [3]": {"molecular_target": "T3, MBNL3 (human, UniProt Q9NUK0 1-257)", "T3 sequence": "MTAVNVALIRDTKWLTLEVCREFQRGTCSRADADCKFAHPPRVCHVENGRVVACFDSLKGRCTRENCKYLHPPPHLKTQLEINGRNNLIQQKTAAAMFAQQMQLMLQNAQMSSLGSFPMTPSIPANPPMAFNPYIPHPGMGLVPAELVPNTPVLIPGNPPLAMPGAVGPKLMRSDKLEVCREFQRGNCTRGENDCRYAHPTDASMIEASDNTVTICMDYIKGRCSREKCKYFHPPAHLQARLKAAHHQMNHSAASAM"}, "MBNL1 [4]": {"molecular_target": "T1, MBNL1", "remark": "listed apart in the source"}, "MBNL2 [5]": {"molecular_target": "T2, MBNL2", "remark": "listed apart in the source"}, "MBNL3 [6]": {"molecular_target": "T3, MBNL3", "remark": "listed apart in the source"}}}
{"binder": "B1", "values": [{"measurement": "Kd", "setting": "MBNL1 [1]", "result": "~7.75", "unit": "nM"}, {"measurement": "Kd", "setting": "MBNL2 [2]", "result": "~7.75", "unit": "nM"}, {"measurement": "Kd", "setting": "MBNL3 [3]", "result": "~7.75", "unit": "nM"}]}
{"binder": "B2", "values": [{"measurement": "binding result", "setting": "MBNL1 [4]", "result": "binds"}, {"measurement": "binding result", "setting": "MBNL2 [5]", "result": "binds"}, {"measurement": "binding result", "setting": "MBNL3 [6]", "result": "binds"}]}
